Assay results: paper PMC6934973 (Iranian Journal of Pharmaceutical Research : IJPR, 2019)

Experiment: Parallel Artificial Membrane Permeability Assay (PAMPA)
Type: in vitro ADME
Conditions: for Papp: read-out: Pe × 10-6 (cm/s), effective permeability; for permeability compared to norbuprenorphine-Leu-enkephalin: result in words
[1] = 200 μM, pH 7.4, 20% 1-propanol cosolvent, 4 h
[2] = 200 μM, pH 7.4, 20% 1-propanol cosolvent, 4 h, room temperature

SMILES | % PAMPA Transport after 4h [1] | %Membrane retention [2] | Papp [2] | Pe × 10-6 (cm/s), effective permeability [2] | permeability compared to norbuprenorphine-Leu-enkephalin
CC(C)C[C@H](NC(=O)[C@H](Cc1ccccc1)NC(=O)CNC(=O)CNC(=O)[C@@H](N)Cc1ccc(O)cc1)C(=O)O [Standard Leu-enkephalin, Leu-enkephalin, reference compound] | 0.8% | 0% | 0.38 ×10⁻⁶ cm/s |  | 
COc1ccc2c3c1O[C@@H]1[C@]34CCN(C(=O)[C@H](CCSC)NC(=O)[C@H](Cc3ccccc3)NC(=O)CNC(=O)CNC(=O)[C@@H](N)Cc3ccc(O)cc3)[C@H](C2)[C@]42CC[C@@]1(OC)/C(=C(\C)C(C)(C)C)C2 [Compound 14] | 1.6% | 0% | 0.77 ×10⁻⁶ cm/s |  | 
CC(C)NCC(O)COc1cccc2ccccc12 (centres unmarked) [Propanolol, reference compound] | 9.9% | 21.8% |  | 5.23 × 10-6 cm/s | 
CO[C@]12CC[C@@]3(CC1=C(C)C(C)(C)C)[C@H]1Cc4ccc(O)c5c4[C@@]3(CCN1C(=O)CCC(=O)N[C@@H](Cc1ccc(O)cc1)C(=O)NCC(=O)NCC(=O)N[C@@H](Cc1ccccc1)C(=O)N[C@@H](CC(C)C)C(=O)O)[C@H]2O5 [Compound 23] | 1.2% | 0% | 0.63 ×10⁻⁶ cm/s |  | lower permeability
CO[C@]12CC[C@@]3(CC1=C(C)C(C)(C)C)[C@H]1Cc4ccc(O)c5c4[C@@]3(CCN1C(=O)c1ccccc1C(=O)N[C@@H](Cc1ccc(O)cc1)C(=O)NCC(=O)NCC(=O)N[C@@H](Cc1ccccc1)C(=O)N[C@@H](CC(C)C)C(=O)O)[C@H]2O5 [Compound 24] | 1.9% | 0% | 0.92 ×10⁻⁶ cm/s |  | lower permeability
CO[C@]12CC[C@@]3(C/C1=C(\C)C(C)(C)C)[C@H]1Cc4ccc(O)c5c4[C@@]3(CCN1C(=O)[C@H](CC(C)C)NC(=O)[C@H](Cc1ccccc1)NC(=O)CNC(=O)CNC(=O)[C@@H](N)Cc1ccc(O)cc1)[C@H]2O5 [Compound 18] | 4.3% | 30.9% | 2.13 ×10⁻⁶ cm/s |  | 
COc1ccc2c3c1O[C@@H]1[C@]34CCN(C(=O)[C@H](CCSC)NC(=O)[C@H](Cc3ccccc3)NC(=O)CNC(=O)CNC(=O)[C@@H](N)Cc3ccc(O)cc3)[C@H](C2)[C@]42CC[C@@]1(OC)/C(=C(/C)C(C)(C)C)C2 [Compound 15] | 2.9% | 0% | 1.42 ×10⁻⁶ cm/s |  | 
CSCC[C@H](NC(=O)[C@H](Cc1ccccc1)NC(=O)CNC(=O)CNC(=O)[C@@H](N)Cc1ccc(O)cc1)C(=O)O [Standard Met-enkephalin, Met-enkephalin, reference compound] | 0.2% | 0% | 0.09 ×10⁻⁶ cm/s |  | 
CO[C@]12CC[C@@]3(C/C1=C(/C)C(C)(C)C)[C@H]1Cc4ccc(O)c5c4[C@@]3(CCN1C(=O)[C@H](CC(C)C)NC(=O)[C@H](Cc1ccccc1)NC(=O)CNC(=O)CNC(=O)[C@@H](N)Cc1ccc(O)cc1)[C@H]2O5 [Compound 17] | 6.8% | 10.3% | 3.46 ×10⁻⁶ cm/s |  | 
